Values quoted from earlier work in PMC10480133.

Target: GRGDSPK peptide

For Integrin αvβ3 (from UniProt P06756), which Kd is on record?
The Kd was 0.0122 µM.
